Data published in PMC12342132, “Mechanistic insights into the GEF activity of the human MON1A/CCZ1/C18orf8 complex” (Protein & Cell, 2025).

B1: CCZ1 (1–482) (natural protein, human, UniProt P86791 1-482, looked up)
chain: MAAAAAGAGSGPWAAQEKQFPPALLSFFIYNPRFGPREGQEENKILFYHPNEVEKNEKIRNVGLCEAIVQFTRTFSPSKPAKSLHTQKNRQFFNEPEENFWMVMVVRNPIIEKQSKDGKPVIEYQEEELLDKVYSSVLRQCYSMYKLFNGTFLKAMEDGGVKLLKERLEKFFHRYLQTLHLQSCDLLDIFGGISFFPLDKMTYLKIQSFINRMEESLNIVKYTAFLYNDQLIWSGLEQDDMRILYKYLTTSLFPRHIEPELAGRDSPIRAEMPGNLQHYGRFLTGPLNLNDPDAKCRFPKIFVNTDDTYEELHLIVYKAMSAAVCFMIDASVHPTLDFCRRLDSIVGPQLTVLASDICEQFNINKRMSGSEKEPQFKFIYFNHMNLAEKSTVHMRKTPSVSLTSVHPDLMKILGDINSDFTRVDEDEEIIVKAMSDYWVVGKKSDRRELYVILNQKNANLIEVNEEVKKLCATQFNNIFFLD
notes: human CCZ1, residues 1-482; Subunit of m3, written alone for the pairwise contacts in the structure
B2: MON1A (235–652) (domain or fragment, human, UniProt Q86VX9 235-652, looked up)
chain: GTTEGDEEDATEAWRLHQKHVFVLSEAGKPVYSRYGSEEALSSTMGVMVALVSFLEADKNAIRSIHADGYKVVFVRRSPLVLVAVARTRQSAQELAQELLYIYYQILSLLTGAQLSHIFQQKQNYDLRRLLSGSERITDNLLQLMARDPSFLMGAARCLPLAAAVRDTVSASLQQARARSLVFSILLARNQLVALVRRKDQFLHPIDLHLLFNLISSSSSFREGEAWTPVCLPKFNAAGFFHAHISYLEPDTDLCLLLVSTDREDFFAVSDCRRRFQERLRKRGAHLALREALRTPYYSVAQVGIPDLRHFLYKSKSSGLFTSPEIEAPYTSEEEQERLLGLYQYLHSRAHNASRPLKTIYYTGPNENLLAWVTGAFELYMCYSPLGTKASAVSAIHKLMRWIRKEEDRLFILTPLTY
notes: Subunit of m3, written alone for the pairwise contacts in the structure

Legend:
[1] = molecular target: T1, C18orf8 (1–657) (human, UniProt Q96DM3 1-657); experiment: cryo-EM structure; MON1A (235–652)/CCZ1 (1–482)/C18orf8 (1–657)/Rab7A (1–181) T22N complex, 3.41 Å; details: both partners purified
T1 construct: Subunit of m3, written alone for the pairwise contacts in the structure
T1 sequence (looked up): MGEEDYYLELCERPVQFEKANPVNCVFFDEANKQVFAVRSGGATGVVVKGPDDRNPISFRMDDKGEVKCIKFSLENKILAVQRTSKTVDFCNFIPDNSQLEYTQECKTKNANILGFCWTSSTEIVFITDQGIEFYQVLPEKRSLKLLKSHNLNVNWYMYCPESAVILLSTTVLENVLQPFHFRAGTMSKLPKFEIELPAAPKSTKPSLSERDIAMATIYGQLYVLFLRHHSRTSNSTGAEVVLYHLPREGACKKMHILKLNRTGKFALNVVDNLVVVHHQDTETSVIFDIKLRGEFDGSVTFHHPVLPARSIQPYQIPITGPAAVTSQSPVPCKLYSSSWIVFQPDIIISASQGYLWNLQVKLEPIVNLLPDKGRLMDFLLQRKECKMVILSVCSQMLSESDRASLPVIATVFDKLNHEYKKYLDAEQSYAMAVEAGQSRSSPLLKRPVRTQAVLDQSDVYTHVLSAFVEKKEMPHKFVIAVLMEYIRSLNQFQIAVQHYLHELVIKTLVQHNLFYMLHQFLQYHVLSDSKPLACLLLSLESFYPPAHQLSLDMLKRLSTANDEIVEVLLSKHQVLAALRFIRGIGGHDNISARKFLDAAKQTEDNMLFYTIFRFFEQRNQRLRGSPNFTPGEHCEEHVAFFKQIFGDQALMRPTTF

[2] = molecular target: B1; experiment: as above; details: both partners purified

| Binder | binding result [1] | binding result [2] |
| --- | --- | --- |
| B1 | binds | – |
| B2 | binds | binds |
